Test results from IntAct's records for PubMed 18976727.

B1: Prickle-like protein 1 (Homo sapiens), Q96MT3 (parent)
chain: MPLEMEPKMSKLAFGCQRSSTSDDDSGCALEEYAWVPPGLRPEQIQLYFACLPEEKVPYVNSPGEKHRIKQLLYQLPPHDNEVRYCQSLSEEEKKELQVFSAQRKKEALGRGTIKLLSRAVMHAVCEQCGLKINGGEVAVFASRAGPGVCWHPSCFVCFTCNELLVDLIYFYQDGKIHCGRHHAELLKPRCSACDEIIFADECTEAEGRHWHMKHFCCLECETVLGGQRYIMKDGRPFCCGCFESLYAEYCETCGEHIGVDHAQMTYDGQHWHATEACFSCAQCKASLLGCPFLPKQGQIYCSKTCSLGEDVHASDSSDSAFQSARSRDSRRSVRMGKSSRSADQCRQSLLLSPALNYKFPGLSGNADDTLSRKLDDLSLSRQGTSFASEEFWKGRVEQETPEDPEEWADHEDYMTQLLLKFGDKSLFQPQPNEMDIRASEHWISDNMVKSKTELKQNNQSLASKKYQSDMYWAQSQDGLGDSAYGSHPGPASSRRLQELELDHGASGYNHDETQWYEDSLECLSDLKPEQSVRDSMDSLALSNITGASVDGENKPRPSLYSLQNFEEMETEDCEKMSNMGTLNSSMLHRSAESLKSLSSELCPEKILPEEKPVHLPVLRRSKSQSRPQQVKFSDDVIDNGNYDIEIRQPPMSERTRRRVYNFEERGSRSHHHRRRRSRKSRSDNALNLVTERKYSPKDRLRLYTPDNYEKFIQNKSAREIQAYIQNADLYGQYAHATSDYGLQNPGMNRFLGLYGEDDDSWCSSSSSSSDSEEEGYFLGQPIPQPRPQRFAYYTDDLSSPPSALPTPQFGQRTTKSKKKKGHKGKNCIIS
partner: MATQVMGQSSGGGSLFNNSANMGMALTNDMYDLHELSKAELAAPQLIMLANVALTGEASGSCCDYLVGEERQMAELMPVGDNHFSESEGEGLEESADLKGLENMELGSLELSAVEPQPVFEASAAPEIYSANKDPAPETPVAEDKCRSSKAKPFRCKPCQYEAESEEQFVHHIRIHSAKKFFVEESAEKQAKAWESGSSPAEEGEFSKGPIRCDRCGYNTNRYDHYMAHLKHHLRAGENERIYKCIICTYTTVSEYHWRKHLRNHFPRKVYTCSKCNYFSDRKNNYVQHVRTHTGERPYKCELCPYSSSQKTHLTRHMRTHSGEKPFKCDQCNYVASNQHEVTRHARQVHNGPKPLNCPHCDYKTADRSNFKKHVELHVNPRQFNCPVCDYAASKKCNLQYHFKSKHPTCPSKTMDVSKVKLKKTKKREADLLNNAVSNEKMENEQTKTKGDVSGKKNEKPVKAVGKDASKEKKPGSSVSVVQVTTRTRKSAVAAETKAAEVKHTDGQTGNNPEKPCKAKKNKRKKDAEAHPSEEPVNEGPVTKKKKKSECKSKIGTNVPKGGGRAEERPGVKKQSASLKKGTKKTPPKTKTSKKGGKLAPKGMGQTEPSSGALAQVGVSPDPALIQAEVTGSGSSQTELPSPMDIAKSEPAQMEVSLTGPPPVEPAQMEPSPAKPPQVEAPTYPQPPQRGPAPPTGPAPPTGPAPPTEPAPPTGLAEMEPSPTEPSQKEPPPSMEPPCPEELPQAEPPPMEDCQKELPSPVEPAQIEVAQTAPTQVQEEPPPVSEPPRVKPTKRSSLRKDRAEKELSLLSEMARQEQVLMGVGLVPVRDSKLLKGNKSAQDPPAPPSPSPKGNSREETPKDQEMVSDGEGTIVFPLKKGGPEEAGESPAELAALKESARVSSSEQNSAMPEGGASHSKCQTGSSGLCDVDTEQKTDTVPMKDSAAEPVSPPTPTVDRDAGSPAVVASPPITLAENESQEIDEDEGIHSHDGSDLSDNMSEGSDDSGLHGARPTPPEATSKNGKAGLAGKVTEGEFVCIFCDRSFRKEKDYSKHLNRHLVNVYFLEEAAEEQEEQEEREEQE

Variants of: B1
Conditions: with rest_mouse Rest

Variant | effect of a mutation on the interaction
R104Q | decreasing interaction
